In assay [1] the target is T1, GST-MPP8 (MPP8 chromodomain) (Homo sapiens, UniProt Q99549).
T1 sequence (Q99549 50-120): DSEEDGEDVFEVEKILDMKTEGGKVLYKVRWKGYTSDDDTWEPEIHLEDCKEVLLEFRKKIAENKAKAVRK
Kind of assay: AlphaScreen competitive binding, GST-MPP8/b-H3K9me3.

Assay [2] has as its target Human M-phase phosphoprotein chromodomain-containing region (amino acids 50–120) with N-terminal GST tag (human) (UniProt Q99549). Kind of assay: AlphaScreen or HTRF.
The target in assay [3] is Mouse heterochromatin protein 1-beta chromodomain-containing region (amino acids 1–185) with N-terminal GST tag (mouse) (UniProt P83917). Briefly: AlphaScreen or HTRF. Background: Bead proximity is the source of the signal in Alpha formats.
Sequence of Mouse heterochromatin protein 1-beta chromodomain-containing region (amino acids 1–185) with N-terminal GST tag (mouse) (P83917 whole entry, the tested form may be a part): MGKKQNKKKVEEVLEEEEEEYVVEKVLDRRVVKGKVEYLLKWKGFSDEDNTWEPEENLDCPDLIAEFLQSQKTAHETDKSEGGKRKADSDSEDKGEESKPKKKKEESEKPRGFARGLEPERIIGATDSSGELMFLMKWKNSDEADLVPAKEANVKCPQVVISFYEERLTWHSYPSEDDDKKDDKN

pEC50: −log10 of the molar value.

One may read the pEC50 as −log10 of the EC50, conventionally taken in molar units. For the molecule `C[C@H](N)C(=O)N[C@@H](CCCNC(=N)N)C(=O)N[C@H](C(=O)N[C@@H](CCCCN)C(=O)N[C@@H](CCC(N)=O)C(=O)N[C@H](C(=O)N[C@@H](C)C(=O)N[C@@H](CCCNC(=N)N)C(=O)N[C@@H](CCCCN)C(=O)N[C@@H](CO)C(=O)N[C@H](C(=O)NCC(=O)NCC(=O)N[C@@H](CCCCN)C(=O)N[C@@H](C)C(=O)N1CCC[C@H]1C(=O)N[C@@H](CCCNC(=N)N)C(=O)N[C@@H](CCCCN)C(=O)O)[C@@H](C)O)[C@@H](C)O)[C@@H](C)O` [Peptide H3], the pEC50 in assay [1] is 3.80.
Consider “biotinylated histone H3 peptide trimethylated at Lys9”, for which the results for the fold AlphaScreen signal over b-H3K4me3 in assay [2] and in assay [3] were 1.7 fold and 3.3 fold, respectively.
In the case of “biotinylated histone H3 peptide trimethylated at Lys4”, the AlphaScreen signal was found to be 26000 c.p.s in assay [2] and 7800 c.p.s in assay [3].
